{"source": "paper PMC12282171", "about": "“VCY mediates inhibition of PFV replication via interaction with the transcription activator Tas” (Journal of Virology, 2025)", "target": "His-VCY (human, UniProt O14598 1-125)", "assay": "pull-down; purified His-VCY added to purified GST-Tas or GST coupled to glutathione sepharose, 3 h at 4 °C; western blot", "settings": "both partners purified", "data": [{"binder": "GST-Tas (natural protein, also called recombinant GST-Tas; pGST-Tas; source: E. coli BL21, purified (GST column)) MDSYEKEESVASTSGIQDLQTLSELVGPENAGEGELTIAEEPEENPRRPRRYTKREVKCVSYHAYKEIEDKHPQHIKLQDWIPTPEEMSKSLCKRLILCGLYSAEKASEILRMPFTVSWEQSDTDPDCFIVSYTCIFCDAVIHDPMPIRWDPEVGIWVKYKPLRGIVGSAVFIMHKHQRNCSLVKPSTSCSEGPKPRPRHDPVLRCDMFEKHHKPRQKRPRRRSIDNESCASSSDTMANEPGSLCTNPLWNPGPLLSGLLEESSNLPNLEVHMSGGPFWEEVYGDSILGPPSGSGEHSVL", "values": [{"measurement": "binding result", "value": "binds"}]}]}
